The results in this text go back to publication PMC3901395, “Multivalent interactions of the SUMO-interaction motifs in RING finger protein 4 determine the specificity for chains of the SUMO” (Biochemical Journal, 2013).

For the test, the target named is T1, mono-SUMO2 (UniProt P61956 12-93).
T1 construct: SUMO2-ΔN11 monomer (first 11 residues missing) ending with the C-terminal GG motif and a stop codon; The methods describe the monomers from the pGEX-4T2 plasmids as ΔN11; also called SUMO2-ΔN11 monomer; source: E. coli Rosetta 2(DE3)pLysS, purified (glutathione beads, thrombin cleavage, anion exchange, SEC)
T1 sequence (P61956 12-93): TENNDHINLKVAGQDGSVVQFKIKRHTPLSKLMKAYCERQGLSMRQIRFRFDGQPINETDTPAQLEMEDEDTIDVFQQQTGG
Briefly: ITC; VP-ITC or ITC200; 25°C; ITC buffer (50 mM Tris/HCl, pH 7.5, 150 mM NaCl, 2 mM DTT, 5% glycerol); SUMOs titrated into a solution of the RNF4 construct or peptide (legends of Figures 1B, 2B); 20–30 injections up to 2–3-fold molar excess; values averaged from two to six titrations. To be noted: both partners purified.

B1: single PIAS1 peptide (peptide)
chain: KVEVIDLTIDSSSDEEEEEP
modifications: exact peptide ends are only in Figure 2A; limits set around the VIDLT core plus C-terminal acidic flank; termini unknown
In turn, B1 yielded a dissociation constant Kd of 16 µM.

A word on the Kd: it is the free concentration of one partner at which half of the binding sites on the other are occupied at equilibrium, for simple one-to-one binding. A higher Kd goes with weaker binding.
